Experimental data from patent US12528864 (GlaxoSmithKline, dated 2026).

Key:
[1] = target: T1, recombinant human CD96v2 (human, UniProt P40200-2 22-503, limits assumed, biotinylated (site not stated)); assay: MSD-SET solution equilibrium titration, antibody titrated against constant biotinylated CD96, free antigen detected
T1 construct: Soluble recombinant protein used in MSD-SET; also called Biotinylated human CD96 protein
T1 sequence (looked up): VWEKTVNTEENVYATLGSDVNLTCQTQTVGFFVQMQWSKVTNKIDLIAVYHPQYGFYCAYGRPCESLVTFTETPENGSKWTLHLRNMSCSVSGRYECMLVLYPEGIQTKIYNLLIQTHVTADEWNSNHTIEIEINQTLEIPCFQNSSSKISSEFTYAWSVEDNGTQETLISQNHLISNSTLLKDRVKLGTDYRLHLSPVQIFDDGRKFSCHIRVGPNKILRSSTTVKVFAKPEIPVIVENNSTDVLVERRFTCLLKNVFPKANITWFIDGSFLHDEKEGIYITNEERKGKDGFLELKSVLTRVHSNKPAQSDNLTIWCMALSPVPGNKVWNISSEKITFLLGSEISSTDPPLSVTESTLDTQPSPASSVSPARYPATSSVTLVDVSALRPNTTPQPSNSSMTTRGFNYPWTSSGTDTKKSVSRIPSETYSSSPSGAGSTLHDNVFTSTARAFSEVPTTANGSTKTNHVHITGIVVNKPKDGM

[2] = target: T2, human CD96v2 expressed on cells (CHO cells; transiently transfected HEK cells) (human, UniProt P40200-2 22-569); assay: flow cytometry on CHO cells expressing human CD96v2
T2 construct: whole, on cells; the cell is named under assay; also called CHO-huCD96; hCD96v2
T2 sequence (looked up): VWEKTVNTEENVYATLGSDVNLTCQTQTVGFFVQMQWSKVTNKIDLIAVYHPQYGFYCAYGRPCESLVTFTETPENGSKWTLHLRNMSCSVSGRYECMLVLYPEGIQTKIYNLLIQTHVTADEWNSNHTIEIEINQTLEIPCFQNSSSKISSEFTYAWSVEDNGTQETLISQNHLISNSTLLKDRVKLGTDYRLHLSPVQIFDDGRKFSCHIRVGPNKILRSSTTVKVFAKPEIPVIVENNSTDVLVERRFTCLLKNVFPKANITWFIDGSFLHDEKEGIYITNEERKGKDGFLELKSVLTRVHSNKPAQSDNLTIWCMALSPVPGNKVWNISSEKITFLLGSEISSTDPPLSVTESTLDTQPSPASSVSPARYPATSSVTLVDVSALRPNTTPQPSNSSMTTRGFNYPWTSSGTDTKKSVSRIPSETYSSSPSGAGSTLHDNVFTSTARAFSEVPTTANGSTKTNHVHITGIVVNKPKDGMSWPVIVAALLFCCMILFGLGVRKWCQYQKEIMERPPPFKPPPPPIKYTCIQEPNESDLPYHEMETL

[3] = target: T2, human CD96v2 expressed on cells (CHO …); assay: flow cytometry on transiently transfected HEK cells (Human CD96v2)
[4] = target: T3, recombinant cynomolgus monkey CD96v2 (cynomolgus monkey, UniProt A0A2K5TWV6 22-487, biotinylated (site not stated)); assay: MSD-SET solution equilibrium titration, antibody titrated against constant biotinylated CD96, free antigen detected
T3 construct: Soluble recombinant protein used in MSD-SET; also called cynomolgus monkey biotinylated CD96 protein
T3 sequence: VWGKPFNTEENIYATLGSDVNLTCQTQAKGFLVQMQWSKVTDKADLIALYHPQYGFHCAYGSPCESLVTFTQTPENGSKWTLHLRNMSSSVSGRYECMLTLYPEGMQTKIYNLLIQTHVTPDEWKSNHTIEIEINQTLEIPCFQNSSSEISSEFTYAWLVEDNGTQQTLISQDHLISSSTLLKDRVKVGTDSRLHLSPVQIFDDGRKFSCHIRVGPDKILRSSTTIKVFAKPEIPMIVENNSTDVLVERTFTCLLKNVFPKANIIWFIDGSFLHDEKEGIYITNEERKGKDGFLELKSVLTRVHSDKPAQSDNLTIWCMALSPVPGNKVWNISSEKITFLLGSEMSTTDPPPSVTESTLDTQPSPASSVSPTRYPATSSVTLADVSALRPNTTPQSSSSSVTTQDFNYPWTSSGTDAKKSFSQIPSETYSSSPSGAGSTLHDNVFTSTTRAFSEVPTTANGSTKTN

[5] = target: T4, cynomolgus monkey CD96v2 expressed on cells (CHO cells; transiently transfected HEK cells) (cynomolgus monkey, UniProt A0A2K5TWV6 22-569); assay: flow cytometry on transiently transfected HEK cells (Cyno CD96v2)
T4 construct: the cell is named under assay; also called CHO-cyCD96; Cyno CD96v2
T4 sequence: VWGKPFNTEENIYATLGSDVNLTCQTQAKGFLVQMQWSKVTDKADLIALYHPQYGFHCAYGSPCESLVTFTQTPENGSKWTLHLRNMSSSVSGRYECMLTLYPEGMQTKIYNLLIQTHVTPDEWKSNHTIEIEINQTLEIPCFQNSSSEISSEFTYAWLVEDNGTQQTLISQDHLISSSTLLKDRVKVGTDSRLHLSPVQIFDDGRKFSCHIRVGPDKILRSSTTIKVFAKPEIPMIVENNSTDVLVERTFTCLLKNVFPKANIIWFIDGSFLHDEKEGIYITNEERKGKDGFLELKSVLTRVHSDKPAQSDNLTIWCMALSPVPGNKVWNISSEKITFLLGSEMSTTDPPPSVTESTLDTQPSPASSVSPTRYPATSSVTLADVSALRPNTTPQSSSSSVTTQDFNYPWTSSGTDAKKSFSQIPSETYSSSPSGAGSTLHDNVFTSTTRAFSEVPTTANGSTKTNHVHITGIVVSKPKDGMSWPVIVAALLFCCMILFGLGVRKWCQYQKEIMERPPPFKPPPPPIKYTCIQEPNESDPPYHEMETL

[6] = target: T4, cynomolgus monkey CD96v2 expressed on …; assay: flow cytometry on CHO cells expressing cynomolgus CD96v2
[7] = target: T2, human CD96v2 expressed on cells (CHO …); assay: flow cytometry on transiently transfected HEK cells; geometric mean, n = 3
[8] = target: T4, cynomolgus monkey CD96v2 expressed on …; assay: as above
[9] = target: T5, human complement component C1q (human, UniProt P02745 23-245; P02746 28-253; P02747 29-245); assay: SPR
T5 construct: the three subunits are from general knowledge
T5 sequence (P02745 23-245 limits assumed, chain 1 of 3): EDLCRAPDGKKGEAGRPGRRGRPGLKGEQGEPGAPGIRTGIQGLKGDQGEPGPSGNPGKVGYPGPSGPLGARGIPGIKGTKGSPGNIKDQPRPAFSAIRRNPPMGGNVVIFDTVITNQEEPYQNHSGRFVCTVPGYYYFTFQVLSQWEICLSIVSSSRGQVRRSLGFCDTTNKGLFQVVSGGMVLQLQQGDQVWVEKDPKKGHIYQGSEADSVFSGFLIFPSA
T5 sequence (P02746 28-253 limits assumed, chain 2 of 3): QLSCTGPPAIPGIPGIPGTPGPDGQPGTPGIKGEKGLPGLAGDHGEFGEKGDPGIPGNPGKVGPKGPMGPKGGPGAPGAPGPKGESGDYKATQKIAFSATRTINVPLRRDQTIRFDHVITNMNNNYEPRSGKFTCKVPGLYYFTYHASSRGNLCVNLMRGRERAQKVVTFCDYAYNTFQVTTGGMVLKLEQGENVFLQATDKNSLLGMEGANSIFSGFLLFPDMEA
T5 sequence (P02747 29-245 limits assumed, chain 3 of 3): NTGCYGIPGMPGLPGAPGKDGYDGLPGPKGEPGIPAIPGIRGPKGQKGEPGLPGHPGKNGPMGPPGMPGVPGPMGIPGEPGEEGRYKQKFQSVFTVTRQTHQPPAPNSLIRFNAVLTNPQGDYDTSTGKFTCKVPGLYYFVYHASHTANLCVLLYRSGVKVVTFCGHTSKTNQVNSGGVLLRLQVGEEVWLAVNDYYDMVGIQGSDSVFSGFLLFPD

B1: 42Y073-86F08-66 (antibody)
heavy: not shown
light: DIQLTQSPSSLSASVGDRVTITCRASQSISSYLNWYQQKPGKAPKLLIYAASSLQSGVPSRFSGSGSGTDFTLTISSLQPEDFATYYCQQVLHTITFGGGTKVEIKRTVAAPSVFIFPPSDEQLKSGTASVVCLLNNFYPREAKVQWKVDNALQSGNSQESVTEQDSKDSTYSLSSTLTLSKADYEKHKVYACEVTHQGLSSPVTKSFNRGEC
notes: also called GSK 6097608; GSK6097608
IC50 (read off the curve) [1]: ~0.06 nM | EC50 [2]: 0.05 nM | EC50 (read off the curve) [3]: ~5 nM | IC50 (read off the curve) [4]: ~0.4 nM | EC50 (read off the curve) [5]: ~6 nM | EC50 [6]: 0.02 nM | EC50 [7]: 6.44 nM | EC50 [8]: 7.88 nM | Kd [9]: 94.4 nM
